Results as given in patent US20130236459A1 (MERRIMACK PHARMACEUTICALS, published 2013).
Positions count from the first letter of the chain named. Read-outs that look alike come from different tables or passages of the source.

How the values were obtained:
[1] = biological target: T1, ErbB3 (HER3), endogenous on human tumor cell lines (human, UniProt P21860 20-1342); experiment: cell-based or functional assay
[2] = biological target: T2, IGF-1R (receptor for insulin-like growth factor 1), endogenous on human tumor cell lines (human, UniProt P08069 31-1367); experiment: cell-based or functional assay
T2 sequence (P08069 31-1367): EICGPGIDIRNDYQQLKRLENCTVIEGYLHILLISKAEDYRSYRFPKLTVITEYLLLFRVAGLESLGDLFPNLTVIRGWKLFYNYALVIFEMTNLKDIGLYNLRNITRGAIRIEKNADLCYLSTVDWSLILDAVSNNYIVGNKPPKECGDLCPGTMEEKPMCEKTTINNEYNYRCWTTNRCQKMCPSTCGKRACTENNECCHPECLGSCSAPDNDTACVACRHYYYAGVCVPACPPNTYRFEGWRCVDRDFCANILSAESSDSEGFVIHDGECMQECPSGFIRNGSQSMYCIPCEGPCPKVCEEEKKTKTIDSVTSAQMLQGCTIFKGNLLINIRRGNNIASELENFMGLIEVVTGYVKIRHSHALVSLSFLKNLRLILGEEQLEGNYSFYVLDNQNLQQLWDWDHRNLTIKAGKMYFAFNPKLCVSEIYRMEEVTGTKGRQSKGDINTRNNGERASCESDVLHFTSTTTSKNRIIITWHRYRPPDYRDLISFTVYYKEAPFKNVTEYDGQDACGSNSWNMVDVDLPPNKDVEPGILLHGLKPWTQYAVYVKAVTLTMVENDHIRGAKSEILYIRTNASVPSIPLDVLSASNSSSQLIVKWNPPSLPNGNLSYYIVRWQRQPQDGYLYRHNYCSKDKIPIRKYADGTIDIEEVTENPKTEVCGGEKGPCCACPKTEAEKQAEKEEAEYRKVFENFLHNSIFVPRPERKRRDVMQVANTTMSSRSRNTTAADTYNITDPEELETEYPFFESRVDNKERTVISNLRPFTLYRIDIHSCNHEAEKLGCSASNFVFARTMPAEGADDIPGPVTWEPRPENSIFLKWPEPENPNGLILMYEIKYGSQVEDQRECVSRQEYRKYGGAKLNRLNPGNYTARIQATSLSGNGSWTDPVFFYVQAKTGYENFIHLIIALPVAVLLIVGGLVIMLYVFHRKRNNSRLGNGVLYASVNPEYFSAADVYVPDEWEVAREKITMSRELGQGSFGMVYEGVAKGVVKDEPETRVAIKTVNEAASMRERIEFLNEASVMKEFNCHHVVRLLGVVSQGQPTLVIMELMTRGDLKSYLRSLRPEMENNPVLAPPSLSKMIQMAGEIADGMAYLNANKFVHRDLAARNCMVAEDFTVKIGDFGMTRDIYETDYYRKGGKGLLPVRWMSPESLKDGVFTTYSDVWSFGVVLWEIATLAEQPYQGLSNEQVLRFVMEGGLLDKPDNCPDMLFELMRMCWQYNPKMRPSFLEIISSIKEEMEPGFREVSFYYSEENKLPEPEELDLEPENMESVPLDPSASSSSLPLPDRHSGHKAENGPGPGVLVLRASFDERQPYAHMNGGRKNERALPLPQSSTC

[3] = biological target: T1, ErbB3 (HER3), endogenous on human tumor …; experiment: cell-based or functional assay; remark: listed apart in the source
[4] = biological target: T2, IGF-1R (receptor for insulin-like …); experiment: cell-based or functional assay; remark: listed apart in the source
rat ErbB3-His = biological target: T3, rat ErbB3-His (rat, UniProt Q62799 20-641, limits assumed); experiment: ELISA, species specific ErbB3-His coated plate
T3 construct: not shown: His tag, not further described for this species form
T3 sequence (Q62799 20-641 limits assumed): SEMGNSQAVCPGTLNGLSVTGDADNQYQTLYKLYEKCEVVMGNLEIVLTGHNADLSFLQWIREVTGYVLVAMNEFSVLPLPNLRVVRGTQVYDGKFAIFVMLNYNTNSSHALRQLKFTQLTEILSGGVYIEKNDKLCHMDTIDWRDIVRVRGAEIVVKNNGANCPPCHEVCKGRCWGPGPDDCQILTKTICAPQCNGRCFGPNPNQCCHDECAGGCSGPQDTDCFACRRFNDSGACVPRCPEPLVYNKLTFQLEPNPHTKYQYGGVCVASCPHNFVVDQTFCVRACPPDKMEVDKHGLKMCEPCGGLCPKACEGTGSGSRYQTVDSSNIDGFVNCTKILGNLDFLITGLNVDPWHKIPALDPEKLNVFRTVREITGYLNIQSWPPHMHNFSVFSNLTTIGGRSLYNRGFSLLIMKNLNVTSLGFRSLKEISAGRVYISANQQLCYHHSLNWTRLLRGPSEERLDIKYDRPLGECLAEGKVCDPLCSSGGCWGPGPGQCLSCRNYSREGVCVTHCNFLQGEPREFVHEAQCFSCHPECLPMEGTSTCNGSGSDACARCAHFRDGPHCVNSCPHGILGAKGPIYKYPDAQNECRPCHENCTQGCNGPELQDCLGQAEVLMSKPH
Method: (§1) 96-well Reacti-bind® plates (Pierce, Fisher cat. No. PI-I5041) are coated with 50 ul of species specific ErbB3-His or IGF-1R-His (R&D Systems, cat. No. 348-RB and 305-GR, respectively) at 2 ug/ml in PBS and incubated overnight at 4° C. The next day plates are washed with PBS+0.05% Tween-20 (PBS-T) and blocked for 1 hr. at room temperature with 100 ul of Protein-Free Blocking Buffer (Pierce). Plates are washed with PBS-T and 50 ul of each PBA is added in duplicate. Concentrations start at 500 nM (in PBS-T) and included ten additional two-fold dilutions and one blank (PBS-T only). Plates are incubated at room temperature for two hours and then washed with PBS-T. 50 ul of anti-Fc-HRP (Jackson Labs) is added at 1:40,000 in PBS-T, and plates are incubated in the dark for 1 hr. at room temperature. Plates are again washed with PBS-T and 100 ul of TMB substrate (Thermo Scientific, TMB and peroxide solution mixed 1:1) is added. The plates are incubated for 5-15 minutes at room temperature until a blue color develops, and the reaction is stopped with 100 ul of STOP solution (Cell Signaling Technology). The absorbance is read at 450 nm on a PerkinElmer Envision plate reader, and binding curves are generated using GraphPad Prism.

mouse ErbB3-His = biological target: T4, mouse ErbB3-His (mouse, UniProt Q61526 20-641, limits assumed); experiment: ELISA, species specific ErbB3-His coated plate
T4 construct: not shown: His tag, not further described for this species form
T4 sequence (Q61526 20-641 limits assumed): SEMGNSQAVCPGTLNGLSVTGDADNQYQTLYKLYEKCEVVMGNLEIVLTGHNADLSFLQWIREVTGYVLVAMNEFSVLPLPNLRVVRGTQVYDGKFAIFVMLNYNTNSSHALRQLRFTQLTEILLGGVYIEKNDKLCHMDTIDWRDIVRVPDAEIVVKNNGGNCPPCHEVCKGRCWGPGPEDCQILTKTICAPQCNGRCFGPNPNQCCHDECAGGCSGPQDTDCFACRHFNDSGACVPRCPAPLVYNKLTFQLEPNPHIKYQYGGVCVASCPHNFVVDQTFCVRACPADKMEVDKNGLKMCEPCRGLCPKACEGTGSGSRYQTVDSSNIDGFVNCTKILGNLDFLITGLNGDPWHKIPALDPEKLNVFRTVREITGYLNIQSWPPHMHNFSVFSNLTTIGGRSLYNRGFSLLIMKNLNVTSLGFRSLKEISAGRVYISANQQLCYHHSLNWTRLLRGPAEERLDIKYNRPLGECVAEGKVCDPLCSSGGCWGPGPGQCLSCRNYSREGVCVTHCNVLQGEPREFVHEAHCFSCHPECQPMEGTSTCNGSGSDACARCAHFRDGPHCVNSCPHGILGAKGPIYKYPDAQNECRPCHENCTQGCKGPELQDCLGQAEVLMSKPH
Method: as §1

[5] = biological target: T1, ErbB3 (HER3), endogenous on human tumor …; experiment: cell-based or functional assay; remark: listed apart in the source
[6] = biological target: T2, IGF-1R (receptor for insulin-like …); experiment: cell-based or functional assay; remark: listed apart in the source
[7] = biological target: T2, IGF-1R (receptor for insulin-like …); experiment: cell-based or functional assay; remark: listed apart in the source
rat IGF-1R-His = biological target: T5, rat IGF-1R-His (rat, UniProt P24062 31-936, limits assumed); experiment: ELISA, species specific IGF-1R-His coated plate
T5 construct: not shown: His tag, not further described
T5 sequence (P24062 31-936 limits assumed): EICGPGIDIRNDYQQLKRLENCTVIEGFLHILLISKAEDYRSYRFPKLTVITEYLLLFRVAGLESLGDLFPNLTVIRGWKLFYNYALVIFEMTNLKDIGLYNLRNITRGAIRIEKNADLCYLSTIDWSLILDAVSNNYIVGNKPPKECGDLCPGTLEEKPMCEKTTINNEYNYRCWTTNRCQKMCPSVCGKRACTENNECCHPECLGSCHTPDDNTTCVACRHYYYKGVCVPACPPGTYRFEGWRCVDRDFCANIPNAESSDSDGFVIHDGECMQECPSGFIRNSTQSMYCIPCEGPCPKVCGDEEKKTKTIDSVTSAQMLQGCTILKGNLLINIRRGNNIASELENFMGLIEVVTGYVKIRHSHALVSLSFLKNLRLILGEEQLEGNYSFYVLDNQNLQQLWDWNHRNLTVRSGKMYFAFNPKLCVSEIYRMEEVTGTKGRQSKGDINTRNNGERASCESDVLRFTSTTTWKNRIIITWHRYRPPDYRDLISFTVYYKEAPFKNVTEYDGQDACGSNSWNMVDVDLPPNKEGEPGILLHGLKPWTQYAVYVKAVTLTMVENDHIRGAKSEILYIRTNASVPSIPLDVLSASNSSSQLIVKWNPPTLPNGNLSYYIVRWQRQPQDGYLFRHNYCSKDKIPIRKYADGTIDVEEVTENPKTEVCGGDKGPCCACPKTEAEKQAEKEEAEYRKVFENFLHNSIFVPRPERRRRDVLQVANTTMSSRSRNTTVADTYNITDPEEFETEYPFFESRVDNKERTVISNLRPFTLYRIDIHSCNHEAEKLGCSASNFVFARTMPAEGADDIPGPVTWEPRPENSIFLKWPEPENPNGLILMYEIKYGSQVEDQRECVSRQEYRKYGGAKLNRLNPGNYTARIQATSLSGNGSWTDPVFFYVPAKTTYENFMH
Method: as §1

mouse IGF-1R-His = biological target: T6, mouse IGF-1R-His (mouse, UniProt Q60751 31-936, limits assumed); experiment: ELISA, species specific IGF-1R-His coated plate
T6 construct: not shown: His tag, not further described
T6 sequence (Q60751 31-936 limits assumed): as the sequence (P24062 31-936 limits assumed) above, with G271D, F629Y, L714M counted along it
Method: as §1

[8] = biological target: T1, ErbB3 (HER3), endogenous on human tumor …; experiment: cell-based or functional assay; remark: listed apart in the source
[9] = biological target: T2, IGF-1R (receptor for insulin-like …); experiment: cell-based or functional assay; remark: listed apart in the source
[10] = biological target: T1, ErbB3 (HER3), endogenous on human tumor …; experiment: summary sentence of Example 3 (FACS on cells)
Method: (§2) 1×10⁵ MCF7 cells or 1×10⁵ ADRr cells are incubated at room temperature for 2 hours with each of ELI-7, ILE-10 and ILE-12, two anti-ErB3 antibodies and one anti-IGF-1R antibody at 2 uM, followed by 12 subsequent 3-fold dilutions. Then using goat anti-HSA-Alexa647 conjugated antibody as the detection antibody, cells are incubated on ice for 40 minutes. Cell binding dissociation constants (measures of binding affinities) of the antibodies on MCF7 and ADRr cells are assessed by FACS and apparent dissociation constants are determined for each protein. The following results were obtained (see also FIGS. 14A and 14B): […]

[11] = biological target: T2, IGF-1R (receptor for insulin-like …); experiment: summary sentence of Example 3 (FACS on cells)
Method: as §2

T1 sequence (P21860 20-1342 limits assumed): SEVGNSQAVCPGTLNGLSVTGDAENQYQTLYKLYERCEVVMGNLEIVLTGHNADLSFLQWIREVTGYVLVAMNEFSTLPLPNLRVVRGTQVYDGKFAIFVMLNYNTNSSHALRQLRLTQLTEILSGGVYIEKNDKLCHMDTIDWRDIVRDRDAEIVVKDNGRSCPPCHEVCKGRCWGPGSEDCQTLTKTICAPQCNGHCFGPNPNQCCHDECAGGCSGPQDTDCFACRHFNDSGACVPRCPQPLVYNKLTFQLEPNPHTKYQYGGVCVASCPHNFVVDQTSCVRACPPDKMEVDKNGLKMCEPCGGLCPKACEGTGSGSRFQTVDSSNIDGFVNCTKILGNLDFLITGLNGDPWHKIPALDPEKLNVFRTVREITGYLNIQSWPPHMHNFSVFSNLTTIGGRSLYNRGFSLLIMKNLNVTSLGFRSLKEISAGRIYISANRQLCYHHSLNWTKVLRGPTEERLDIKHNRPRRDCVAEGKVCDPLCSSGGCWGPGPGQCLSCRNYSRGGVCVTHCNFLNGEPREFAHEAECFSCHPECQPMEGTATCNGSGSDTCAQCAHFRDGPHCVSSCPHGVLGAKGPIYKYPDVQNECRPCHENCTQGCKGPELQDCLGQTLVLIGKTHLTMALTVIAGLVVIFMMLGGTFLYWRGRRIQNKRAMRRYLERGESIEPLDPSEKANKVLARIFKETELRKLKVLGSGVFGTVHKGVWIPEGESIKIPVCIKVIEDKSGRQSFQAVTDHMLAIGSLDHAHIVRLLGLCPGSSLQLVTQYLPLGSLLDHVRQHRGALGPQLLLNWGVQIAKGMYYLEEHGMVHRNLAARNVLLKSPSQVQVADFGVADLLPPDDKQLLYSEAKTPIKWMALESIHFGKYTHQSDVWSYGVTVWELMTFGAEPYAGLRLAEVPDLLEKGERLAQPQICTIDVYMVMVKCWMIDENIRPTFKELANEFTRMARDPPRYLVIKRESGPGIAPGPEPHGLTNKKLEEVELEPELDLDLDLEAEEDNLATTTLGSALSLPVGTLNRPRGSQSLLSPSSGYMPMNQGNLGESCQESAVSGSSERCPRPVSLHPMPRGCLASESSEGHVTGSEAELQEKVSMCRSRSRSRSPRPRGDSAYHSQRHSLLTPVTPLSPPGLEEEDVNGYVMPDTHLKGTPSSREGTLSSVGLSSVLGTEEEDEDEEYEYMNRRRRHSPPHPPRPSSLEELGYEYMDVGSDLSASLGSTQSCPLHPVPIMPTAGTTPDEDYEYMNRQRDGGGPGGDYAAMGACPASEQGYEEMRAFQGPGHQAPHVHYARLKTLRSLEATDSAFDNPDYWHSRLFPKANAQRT

B1: ELI-7 (bispecific antibody, human IgG2, lambda)
heavy: EVQLLESGGGLVQPGGSLRLSCAASGFTFSAYNMRWVRQAPGKGLEWVSVIYPSGGATRYADSVKGRFTISRDNSKNTLYLQMNSLRAEDTAVYYCARGYYYYGMDVWGQGTLVTVSSASTKGPSVFPLAPCSRSTSESTAALGCLVKDYFPEPVTVSWNSGALTSGVHTFPAVLQSSGLYSLSSVVTVPSSNFGTQTYTCNVDHKPSNTKVDKTVERKCCVECPPCPAPPVAGPSVFLFPPKPKDTLMISRTPEVTCVVVDVSHEDPEVQFNWYVDGVEVHNAKTKPREEQFNSTFRVVSVLTVVHQDWLNGKEYKCKVSNKGLPAPIEKTISKTKGQPREPQVYTLPPSREEMTKNQVSLTCLVKGFYPSDIAVEWESNGQPENNYKTTPPMLDSDGSFFLYSKLTVDKSRWQQGNVFSCSVMHEALHNHYTQKSLSLSPGKGGGGSGGGGSGGGGSLQEVQLLESGGGLVQPGGSLRLSCAASGFTFSVYPMHWVRQAPGKGLEWVSSISSSGGATRYADSVKGRFTISRDNSKNTLYLQMNSLRAEDTAVYYCAKDFYDILTGNAFDIWGQGTMVTVSSASTGGGGSGGGGSGGGGSDIQMTQSPSSFSASTGDRVTITCRASQGISSYLAWYQQKPGKAPKLLIYAASTLQSGVPSRFSGSGSGTDFTLTISSLQPEDSATYYCQQYFTFPLTFGGGTKVEIK
light: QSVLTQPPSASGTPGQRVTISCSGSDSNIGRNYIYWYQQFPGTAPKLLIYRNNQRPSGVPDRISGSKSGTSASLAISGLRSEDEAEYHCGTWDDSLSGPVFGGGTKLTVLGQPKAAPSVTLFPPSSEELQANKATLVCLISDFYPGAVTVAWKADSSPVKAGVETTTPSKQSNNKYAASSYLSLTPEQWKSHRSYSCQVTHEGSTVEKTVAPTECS
- pErbB3 IC50 (BxPC-3, HRG+IGF1) [1]: 3.7 nM
- pIGF-1R IC50 (BxPC-3, HRG+IGF1) [2]: 10 nM

B2: P4-G1-C8 (bispecific antibody, human IgG1, kappa)
heavy: not shown
light: DIQMTQSPSSLSASLGDRVTITCRASQGISSYLAWYQQKPGKAPKLLIYAKSTLQSGVPSRFSGSGSGTDFTLTISSLQPEDSATYYCQQYWTFPLTFGGGTKVEIKRTVAAPSVFIFPPSDEQLKSGTASVVCLLNNFYPREAKVQWKVDNALQSGNSQESVTEQDSKDSTYSLSSTLTLSKADYEKHKVYACEVTHQGLSSPVTKSFNRGEC
notes: IgG1-(scFv)2: anti-IGF-1R Fab, anti-ErbB3 scFv; also called P4-C8
- pErbB3 IC50 (BxPC-3) [3]: 5.8e-07 M (inferred)
- pIGF1R IC50 (BxPC-3) [4]: 1.3e-09 M (inferred)
- binding result (rat ErbB3-His): binds
- binding result (mouse ErbB3-His): binds
- pAKT IC50 (BxPC-3, HRG 20 ng/ml) [5]: 1.06e-10 M
- pAKT IC50 (BxPC-3, HRG 200 ng/ml) [5]: 1.01e-10 M
- pErbB3 IC50 (BxPC-3, HRG 20 ng/ml) [5]: 6.76e-11 M
- pErbB3 IC50 (BxPC-3, HRG 200 ng/ml) [5]: 5.7e-11 M
- pAKT IC50 (BxPC-3, IGF1 40 ng/ml) [6]: 3.8e-10 M
- pAKT IC50 (BxPC-3, IGF1 400 ng/ml) [6]: 3.4e-10 M
- pIGF1R IC50 (BxPC-3, IGF1 40 ng/ml) [6]: 1.1e-10 M
- pIGF1R IC50 (BxPC-3, IGF1 400 ng/ml) [6]: 8.8e-11 M
- % IGF1R Downregulation (A549, 24 h) [7]: 70%
- % IGF1R Downregulation (BxPC-3, 24 h) [7]: 67%
- binding result (rat IGF-1R-His): binds
- binding result (mouse IGF-1R-His): binds
- pErbB3 % Inhibition (BxPC-3) [8]: 94%
- pErbB3 IC50 (BxPC-3) [8]: 3.6e-11 M (inferred)
- pIGF1R % Inhibition (BxPC-3) [9]: 91%
- pIGF1R IC50 (BxPC-3) [9]: 1.3e-10 M (inferred)

B3: ILE-12 (bispecific antibody, human IgG2, kappa)
heavy: EVQLLESGGGLVQPGGSLRLSCAASGFTFSVYPMHWVRQAPGKGLEWVSSISSSGGATRYADSVKGRFTISRDNSKNTLYLQMNSLRAEDTAVYYCAKDFYDILTGNAFDIWGQGTMVTVSSASTKGPSVFPLAPCSRSTSESTAALGCLVKDYFPEPVTVSWNSGALTSGVHTFPAVLQSSGLYSLSSVVTVPSSNFGTQTYTCNVDHKPSNTKVDKTVERKCCVECPPCPAPPVAGPSVFLFPPKPKDTLMISRTPEVTCVVVDVSHEDPEVQFNWYVDGVEVHNAKTKPREEQFNSTFRVVSVLTVVHQDWLNGKEYKCKVSNKGLPAPIEKTISKTKGQPREPQVYTLPPSREEMTKNQVSLTCLVKGFYPSDIAVEWESNGQPENNYKTTPPMLDSDGSFFLYSKLTVDKSRWQQGNVFSCSVMHEALHNHYTQKSLSLSPGKGGGGSGGGGSGGGGSLQEVQLLESGGGLVQPGGSLRLSCAASGFTFSVYDMYWVRQAPGKGLEWVSYIYSSGGDTDYADSVKGRFTISRDNSKNTLYLQMNSLRAEDTATYYCARASTNSIYDAMDVWGQGTTVTVSSASTGGGGSGGGGSGGGGSDIQMTQSPSSVSASVGDRVTITCRASQDITNWLAWYQQKPGKAPTLLIYDASTLQSGVPSRFSGSGSGTDFTLTISSLQPEDFATYFCQQANGFPLTFGGGTKVEIK
light: B2 light with L11F, L15T, K51A, W92F
notes: anti-IGF-1R/anti-ErbB3 IgG2-(scFv)2: anti-IGF-1R IgG2 (module 5-7), anti-ErbB3 scFv (module 2-21)
- binding result [10]: binds
- binding result [11]: binds

B4: ILE-10 (bispecific antibody, human IgG2, kappa)
heavy: EVQLLESGGGLVQPGGSLRLSCAASGFTFSVYPMHWVRQAPGKGLEWVSSISSSGGATRYADSVKGRFTISRDNSKNTLYLQMNSLRAEDTAVYYCAKDFYDILTGNAFDIWGQGTMVTVSSASTKGPSVFPLAPCSRSTSESTAALGCLVKDYFPEPVTVSWNSGALTSGVHTFPAVLQSSGLYSLSSVVTVPSSNFGTQTYTCNVDHKPSNTKVDKTVERKCCVECPPCPAPPVAGPSVFLFPPKPKDTLMISRTPEVTCVVVDVSHEDPEVQFNWYVDGVEVHNAKTKPREEQFNSTFRVVSVLTVVHQDWLNGKEYKCKVSNKGLPAPIEKTISKTKGQPREPQVYTLPPSREEMTKNQVSLTCLVKGFYPSDIAVEWESNGQPENNYKTTPPMLDSDGSFFLYSKLTVDKSRWQQGNVFSCSVMHEALHNHYTQKSLSLSPGKGGGGSGGGGSGGGGSLQEVQLLESGGGLVQPGGSLRLSCAASGFTFSAYNMRWVRQAPGKGLEWVSVIYPSGGATRYADSVKGRFTISRDNSKNTLYLQMNSLRAEDTAVYYCARGYYYYGMDVWGQGTLVTVSSASTGGGGSGGGGSGGGGSQSVLTQPPSASGTPGQRVTISCSGSDSNIGRNYIYWYQQFPGTAPKLLIYRNNQRPSGVPDRISGSKSGTSASLAISGLRSEDEAEYHCGTWDDSLSGPVFGGGTKLTVLS
light: B2 light with L11F, L15T, K51A, W92F
notes: anti-IGF-1R/anti-ErbB3 IgG2-(scFv)2: anti-IGF-1R IgG2 (module 5-7), anti-ErbB3 scFv (module 2-3); also called 14F; 14f
- binding result [10]: binds
- binding result [11]: binds
